Experiment [1] concerns the target T1, CD39 mutant 19 (human, UniProt P49961).
T1 chain: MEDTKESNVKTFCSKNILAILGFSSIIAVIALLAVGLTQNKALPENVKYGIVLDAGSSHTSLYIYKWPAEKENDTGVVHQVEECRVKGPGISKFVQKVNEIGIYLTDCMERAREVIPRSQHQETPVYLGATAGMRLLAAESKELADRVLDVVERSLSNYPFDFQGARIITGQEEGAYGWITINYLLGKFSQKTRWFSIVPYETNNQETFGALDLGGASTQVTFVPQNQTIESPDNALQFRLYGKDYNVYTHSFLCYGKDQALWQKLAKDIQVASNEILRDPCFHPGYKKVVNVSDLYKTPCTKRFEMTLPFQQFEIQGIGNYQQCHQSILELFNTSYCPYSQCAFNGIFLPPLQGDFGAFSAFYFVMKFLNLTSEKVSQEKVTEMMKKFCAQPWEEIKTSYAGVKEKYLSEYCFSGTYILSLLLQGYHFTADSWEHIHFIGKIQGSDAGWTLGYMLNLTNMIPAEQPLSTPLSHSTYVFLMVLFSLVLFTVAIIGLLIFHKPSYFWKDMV
Kind of experiment: FACS. (Flow cytometry measures light scatter and fluorescence of single cells or particles in a stream.)

Experiment [2] deals with T2, murine CD39 (CHO-moCD39) (mouse, UniProt P55772).
T2 chain: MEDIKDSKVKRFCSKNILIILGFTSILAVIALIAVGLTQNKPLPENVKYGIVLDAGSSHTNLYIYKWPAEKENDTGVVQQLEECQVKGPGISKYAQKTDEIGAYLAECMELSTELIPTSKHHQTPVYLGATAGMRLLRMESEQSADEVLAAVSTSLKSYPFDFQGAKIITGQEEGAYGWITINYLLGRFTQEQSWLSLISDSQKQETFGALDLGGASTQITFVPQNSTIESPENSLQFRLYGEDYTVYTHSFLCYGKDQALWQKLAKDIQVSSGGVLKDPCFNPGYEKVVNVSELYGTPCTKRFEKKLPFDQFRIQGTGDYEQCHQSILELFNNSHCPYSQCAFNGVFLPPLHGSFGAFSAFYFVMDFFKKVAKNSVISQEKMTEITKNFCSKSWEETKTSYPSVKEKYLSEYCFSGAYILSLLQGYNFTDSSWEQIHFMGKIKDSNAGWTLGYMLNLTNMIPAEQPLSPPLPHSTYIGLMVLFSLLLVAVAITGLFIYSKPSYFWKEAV
The experiment can be described thus: FACS.

For experiment [3], the target named is T3, CD39-L2 (ENTPD6) (human, UniProt O75354).
T3 chain: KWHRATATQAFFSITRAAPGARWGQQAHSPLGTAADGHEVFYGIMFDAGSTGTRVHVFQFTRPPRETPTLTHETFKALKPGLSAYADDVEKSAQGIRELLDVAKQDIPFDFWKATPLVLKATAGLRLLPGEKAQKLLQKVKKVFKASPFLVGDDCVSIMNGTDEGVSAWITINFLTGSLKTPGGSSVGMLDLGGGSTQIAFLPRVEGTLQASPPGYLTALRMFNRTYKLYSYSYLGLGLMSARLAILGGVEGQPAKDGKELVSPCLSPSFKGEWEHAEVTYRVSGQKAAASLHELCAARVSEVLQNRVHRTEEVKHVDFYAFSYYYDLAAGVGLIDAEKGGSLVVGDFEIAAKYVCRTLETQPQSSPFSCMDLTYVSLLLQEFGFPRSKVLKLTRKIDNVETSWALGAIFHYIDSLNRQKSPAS
The experiment can be described thus: ELISA. (An ELISA detects its analyte on a solid surface through an enzyme-linked reagent.)

In experiment [4] the target is T4, CD39-L1 (ENTPD2) (human, UniProt Q9Y5L3).
T4 chain: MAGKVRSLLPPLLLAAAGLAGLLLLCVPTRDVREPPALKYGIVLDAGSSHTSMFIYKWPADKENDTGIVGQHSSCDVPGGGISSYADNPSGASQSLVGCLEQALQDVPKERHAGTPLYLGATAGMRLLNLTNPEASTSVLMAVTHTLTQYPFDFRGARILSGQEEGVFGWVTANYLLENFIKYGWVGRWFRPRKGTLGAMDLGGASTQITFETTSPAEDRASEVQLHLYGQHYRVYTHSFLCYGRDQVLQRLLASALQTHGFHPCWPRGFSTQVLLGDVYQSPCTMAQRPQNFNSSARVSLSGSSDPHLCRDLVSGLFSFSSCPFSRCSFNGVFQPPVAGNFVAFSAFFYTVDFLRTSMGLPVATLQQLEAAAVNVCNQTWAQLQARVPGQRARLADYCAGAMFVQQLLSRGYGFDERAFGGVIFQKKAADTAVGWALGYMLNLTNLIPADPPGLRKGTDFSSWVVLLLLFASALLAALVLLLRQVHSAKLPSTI
Kind of experiment: ELISA.

The target of experiment [5] is T5, CD39-L4 (ENTPD5) (human, UniProt O75356).
T5 chain: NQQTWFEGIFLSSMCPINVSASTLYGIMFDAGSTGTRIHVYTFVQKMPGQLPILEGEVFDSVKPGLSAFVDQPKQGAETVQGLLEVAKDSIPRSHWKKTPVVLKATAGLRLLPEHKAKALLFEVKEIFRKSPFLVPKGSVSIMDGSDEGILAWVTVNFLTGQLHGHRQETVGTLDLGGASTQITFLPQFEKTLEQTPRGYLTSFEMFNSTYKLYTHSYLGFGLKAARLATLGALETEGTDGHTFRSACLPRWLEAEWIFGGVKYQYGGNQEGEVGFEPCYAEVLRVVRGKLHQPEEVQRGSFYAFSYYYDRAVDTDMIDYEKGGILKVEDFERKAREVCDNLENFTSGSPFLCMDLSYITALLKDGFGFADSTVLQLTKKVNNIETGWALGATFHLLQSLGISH
The experiment can be described thus: ELISA.

In experiment [6] the target is T6, CD39-L3 (ENTPD3) (human, UniProt O75355).
T6 chain: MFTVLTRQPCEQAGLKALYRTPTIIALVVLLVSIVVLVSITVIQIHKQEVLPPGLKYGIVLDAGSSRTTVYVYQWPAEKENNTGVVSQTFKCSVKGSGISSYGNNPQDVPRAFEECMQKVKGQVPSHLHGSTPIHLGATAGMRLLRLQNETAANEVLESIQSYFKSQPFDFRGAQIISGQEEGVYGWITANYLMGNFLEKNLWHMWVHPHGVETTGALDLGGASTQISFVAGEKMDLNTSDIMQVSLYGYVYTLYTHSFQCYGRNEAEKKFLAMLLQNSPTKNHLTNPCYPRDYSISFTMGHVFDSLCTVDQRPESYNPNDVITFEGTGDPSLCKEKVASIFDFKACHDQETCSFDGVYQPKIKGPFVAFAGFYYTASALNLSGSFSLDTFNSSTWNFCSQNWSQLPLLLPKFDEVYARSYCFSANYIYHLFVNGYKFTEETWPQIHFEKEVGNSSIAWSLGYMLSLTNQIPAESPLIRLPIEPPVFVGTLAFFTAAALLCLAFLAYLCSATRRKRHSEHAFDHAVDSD
The experiment can be described thus: ELISA.

The target of experiment [7] is T7, human CD39 (Ramos cells) (human, UniProt P49961).
T7 chain: T1 chain with A138R, A139M, K142E
Kind of experiment: FACS, Ramos cells, first experiment.

Experiment [8] addresses T7, human CD39 (Ramos cells). Kind of experiment: FACS, Ramos cells, second experiment.

Substitutions are numbered along the chain they refer to.

B1: I-394 (antibody, V domains shown)
VH: EVKLQQSGPELVKPGASVKMSCKASGYTFTDYNMHWVKQSPGRTLEWIGYIVPLNGGSTFNQKFKGRATLTVNTSSRTAYMELRSLTSEDSAAYYCARGGTRFAYWGQGTLVTVSA
VL: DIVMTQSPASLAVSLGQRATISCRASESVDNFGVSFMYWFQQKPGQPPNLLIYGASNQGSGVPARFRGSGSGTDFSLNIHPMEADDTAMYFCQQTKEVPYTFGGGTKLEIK
For B1, the binding result in experiment [1], in experiment [2], in experiment [3], in experiment [4], in experiment [5] and in experiment [6] was “no binding” throughout. The EC50 is 0.16 µg/mL in experiment [7] and 0.19 µg/mL in experiment [8].

The term EC50 denotes the concentration needed to bring the measured effect to its halfway point.

(Values after US11377503.)
